Experimental findings from patent US20100311820, “NUCLEIC ACID MODULATORS OF GLYCOPROTEIN VI” (Regado Biosciences, Inc, published 2010) are described below.

B1: RB561 (ssRNA)
RNA: GGAGGACGGCGCGCCUGGCAUAAGCCUCC
modifications: RB540 with PS C7-G8 and G8-G9
B2: RB488 (ssRNA)
RNA: GGGAGGACGGCGCGCCUGGCAUAAGCCUCCC
modifications: RB490 pattern but 2'-OH G19 and 2'-F C26
B3: RB532 (ssRNA)
RNA: GGGAGGACGGCGCGCCUGGCGUAAGCCUCCC
modifications: RB531 pattern with 2'-OMe G21
B4: RB505 (ssRNA)
RNA: GGGAGGACGGCGCGCCUGGCAUAAGCCUCCC
modifications: RB490 with 2'-OMe A23
B5: RB533 (ssRNA)
RNA: GGGAGGACGGCGCGCCUUGCAUAAGCCUCCC
modifications: RB526 pattern with 2'-F U18
B6: RB491 (ssRNA)
RNA: GGGAGGACGGCGCGCCUGGCAUAAGCCUCCC
modifications: RB490 with 2'-OMe G6
B7: RB519 (ssRNA)
RNA: GGGAGGACGGCGCGCCUGGCAUAAGCCUCCC
modifications: RB490 with 2'-OMe G6, 2'-deoxy A7
B8: RB492 (ssRNA)
RNA: GGGAGGACGGCGCGCCUGGCAUAAGCCUCCC
modifications: RB490 with 2'-OMe A7
B9: RB534 (ssRNA)
RNA: GGGAGGACGGCGCGCCUUGCGUAAGCCUCCC
modifications: RB526 pattern with 2'-F U18 and 2'-OMe G21
B10: RB499 (ssRNA)
RNA: GGGAGGACGGCGCGCCUGGCAUAAGCCUCCC
modifications: RB490 with 2'-OMe G10
B11: RB518 (ssRNA)
RNA: GGGAGGACGGCGCGCCUGGCAUAAGCCUCCC
modifications: RB490 with 2'-OMe G6,A7
B12: RB496 (ssRNA)
RNA: GGGAGGACGGCGCGCCUGGCAUAAGCCUCCC
modifications: RB490 with 2'-deoxy C8
B13: RB506 (ssRNA)
RNA: GGGAGGACGGCGCGCCUGGCAUAAGCCUCCC
modifications: RB490 with 2'-OMe A24
B14: RB500 (ssRNA)
RNA: GGGAGGACGGCGCGCCUGGCAUAAGCCUCCC
modifications: RB490 with 2'-OMe C15
B15: RB531 (ssRNA)
RNA: GGGAGGACGGCGCGCCUGGCAUAAGCCUCCC
modifications: RB526 with 2'-OMe G18
B16: RB504 (ssRNA)
RNA: GGGAGGACGGCGCGCCUGGCAUAAGCCUCCC
modifications: RB490 with 2'-OMe U22
B17: RB502 (ssRNA)
RNA: GGGAGGACGGCGCGCCUGGCAUAAGCCUCCC
modifications: RB490 with 2'-OMe G25
B18: RB503 (ssRNA)
RNA: GGGAGGACGGCGCGCCUGGCAUAAGCCUCCC
modifications: RB490 with 2'-OMe A21
B19: RB524 (ssRNA)
RNA: GGGAGGACGGCGCGCCUGGCAUAAGCCUCCC
modifications: RB520 with 2'-F C15
B20: RB526 (ssRNA)
RNA: GGGAGGACGGCGCGCCUGGCAUAAGCCUCCC
modifications: RB524 with 2'-deoxy A7,G9
B21: RB493 (ssRNA)
RNA: GGGAGGACGGCGCGCCUGGCAUAAGCCUCCC
modifications: RB490 with 2'-OMe C8
B22: RB497 (ssRNA)
RNA: GGGAGGACGGCGCGCCUGGCAUAAGCCUCCC
modifications: RB490 with 2'-OMe G9
B23: RB495 (ssRNA)
RNA: GGGAGGACGGCGCGCCUGGCAUAAGCCUCCC
modifications: RB490 with 2'-deoxy A7
B24: RB556 (ssRNA)
RNA: GGAGGACGGCGCGCCUGGCAUAAGCCUCC
modifications: RB551 with PS G9-C10
B25: EF-3 T2 (RB430) (ssRNA)
RNA: GGGAGGACGAUGCGGAUCACACCGCGUCUUGCGUAAGCCUCCU
modifications: 2'-F C and U; 2'-OH A and G
B26: EF-22 (RB433) (ssRNA)
RNA: GGGAGGACGAUGCGGAUUCAACCCGCCUCUGGCAUAAGCCUACCCAUCGUGAUUGUCAGACGACUCGCUGAGGAUCCGAGA
modifications: 2'-F C and U; 2'-OH A and G
B27: EF-31 T5 (RB442) (ssRNA)
RNA: GGGAGGACGGCGGUCUAAGCUGCCUGGCAUAAGCCUCCC
modifications: 2'-F C and U; 2'-OH A and G
B28: EF-3 (RB429) (ssRNA)
RNA: GGGAGGACGAUGCGGAUCACACCGCGUCUUGCGUAAGCCUCCUACUAACGGAUCGCAGACGACUCGCUGAGGAUCCGAGA
modifications: 2'-F C and U; 2'-OH A and G
B29: EF-2 T2 (RB428) (ssRNA)
RNA: GGGAGGACGAUGCGGUGCCAAAACACCCGUCUUGCAUAAGCCUCCU
modifications: 2'-F C and U; 2'-OH A and G
B30: E2-6 (RB431) (ssRNA)
RNA: GGGAGGACGAUGCGGAUAGACCGCGUCUGGCAUAAGCCUCCAAACACUCUGAUCCCAGACGACUCGCUGAGGAUCCGAGA
modifications: 2'-F C and U; 2'-OH A and G
B31: RB555 (ssRNA)
RNA: GGAGGACGGCGCGCCUGGCAUAAGCCUCC
modifications: RB551 with PS G8-G9
B32: EF-31 T2 (RB439) (ssRNA)
RNA: GGGAGGACGAUGCGGUCUAAGCUGCGUCUGGCAUAAGCCUCACC
modifications: 2'-F C and U; 2'-OH A and G
B33: E2-6 T1 (RB432) (ssRNA)
RNA: GGGAGGACGAUGCGGAUAGACCGCGUCUGGCAUAAGCCUCC
modifications: 2'-F C and U; 2'-OH A and G
B34: EF-3 T5 (RB447) (ssRNA)
RNA: GGGAGGACGGCGAUCACACGCCUUGCGUAAGCCUCCC
modifications: 2'-F C and U; 2'-OH A and G
B35: EF-2 T1 (ssRNA)
RNA: GGGAGGACGAUGCGGUGCCAAAACACCCGUCUUGCAUAAGCCUCCUACGGCAACU
modifications: 2'-F C and U; 2'-OH A and G
B36: RB554 (ssRNA)
RNA: GGAGGACGGCGCGCCUGGCAUAAGCCUCC
modifications: RB551 with PS C7-G8
B37: EF-3 T4 (RB446) (ssRNA)
RNA: GGGAGGACGGCGGAUCACACCGCCUUGCGUAAGCCUCCC
modifications: 2'-F C and U; 2'-OH A and G
B38: RB550 (ssRNA)
RNA: GGAGGACGGCGCGCCUGGCAUAAGCCUCC
modifications: RB540 with PS G9-C10
B39: EF-31 T7 (RB444) (ssRNA)
RNA: GGGAGGACGGCGCUAACGCCUGGCAUAAGCCUCCC
modifications: 2'-F C and U; 2'-OH A and G
B40: RB460 (ssRNA)
RNA: GGGAGGACGGCGCUAACGCCUGGCAUAAGCCUCCC
modifications: RB448 with 2'-OMe G22
B41: RB452 (ssRNA)
RNA: GGGAGGACGGCGCUAACGCCUGGCAUAAGCCUCCC
modifications: RB448 with 2'-OMe at most of Stem 1 (G1,G2,G3,A4 and 3' partners)
B42: RB455 (ssRNA)
RNA: GGGAGGACGGCGCUAACGCCUGGCAUAAGCCUCCC
modifications: RB448 with 2'-OMe C11,G12,C17,G18
B43: EF-31 (RB435) (ssRNA)
RNA: GGGAGGACGAUGCGGUCUAAGCUGCGUCUGGCAUAAGCCUCACCUACUCGAUACUCAGACGACUCGCUGAGGAUCCGAGA
modifications: 2'-F C and U; 2'-OH A and G
B44: EF-31 T3 (RB440) (ssRNA)
RNA: GGGAGGACGAUGCGGUCUAAGCUGCGUCUGGCAUAAGCCUCCC
modifications: 2'-F C and U; 2'-OH A and G
B45: EF-31 T1 (RB436) (ssRNA)
RNA: GGGAGGACGAUGCGGUCUAAGCUGCGUCUGGCAUAAGCCUCACCUACU
modifications: 2'-F C and U; 2'-OH A and G
B46: EF-31 T6 (RB443) (ssRNA)
RNA: GGGAGGACGGCGUCUAAGCGCCUGGCAUAAGCCUCCC
modifications: 2'-F C and U; 2'-OH A and G
B47: EF-22 T1 (RB434) (ssRNA)
RNA: GGGAGGACGAUGCGGAUUCAACCCGCCUCUGGCAUAAGCCUACCC
modifications: 2'-F C and U; 2'-OH A and G

This data set concerns the target T1, Glycoprotein VI extracellular domain (Gln21-Lys267) (Homo sapiens, UniProt Q9HCN6 SEQ:1-247).
T1 chain: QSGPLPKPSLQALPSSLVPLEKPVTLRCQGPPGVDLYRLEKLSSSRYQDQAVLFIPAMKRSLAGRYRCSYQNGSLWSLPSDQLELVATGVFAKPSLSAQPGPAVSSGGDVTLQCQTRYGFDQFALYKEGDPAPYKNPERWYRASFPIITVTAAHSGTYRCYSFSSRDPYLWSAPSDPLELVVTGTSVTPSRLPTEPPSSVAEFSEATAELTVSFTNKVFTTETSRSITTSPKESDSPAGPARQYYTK
Kind of data set: filter. The conditions noted are these: tags: C-terminal His6; R&D Systems 3627-GP; label: 5'-32P. How it is done:
Enrichment of the ligand libraries for GPVI was monitored in direct binding studies utilizing radiolabeled ligand RNA from respective rounds of SELEX and soluble GPVI. Binding studies were performed with trace P³² end-labeled RNA added to serial dilutions of GPVI in Binding Buffer F. To prepare radiolabeled RNAs for binding studies, one hundred picomoles of RNA was dephosphorylated with Bacterial Alkaline Phopshatase at 50° C. for 1 hour. The reaction was phenol:chloroform:isoamyl alcohol (25:24:1) extracted, chloroform: isoamyl:alcohol (24:1) extracted, and ethanol precipitated. Three pmoles of dephosphorylated RNA was end labeled with T4 Poylnucleotide Kinase with supplied buffer, and 20 μCi of γ-P³²-ATP and subsequently cleaned with a Biorad MicroBio Spin P-30 spin column. End-labeled RNA was diluted to a final concentration of 2000 cpm/μL and heat denatured at 65° C. for 5 minutes. RNA and GPVI dilutions were equilibrated at 37° C. prior to use. RNA (5 μL) was added to varying concentrations of GPVI (15 μL) at 37° C. and incubated together for 5 to 15 minutes. The complexed RNA/GPVI protein mixture was then loaded over a Protean BA85 nitrocellulose membrane, overlayed on a Genescreen Plus Nylon membrane, in a 96 well vacuum manifold system with washing. The membranes were exposed to a phosphorimager screen, scanned, and quantitated with a Molecular Dynamics Storm 840 Phosphorimager. The fraction bound was calculated by dividing the counts on the nitrocellulose by the total counts and adjusting for the background. Results for binding of enriched ligand libraries from round 10 E2 and round 10 EF of the SELEX as compared to the GPVI-naïve starting ligand library are shown in FIG. 3.
In turn, B1 showed a Kd of less than 10 nM.

On to B2, for which the Kd is less than 10 nM.

As for B3, binding was characterised by a dissociation constant (Kd) of 15.5 nM.

The molecule B4 yielded a Kd of less than 10 nM.

On to B5, for which binding was put at a Kd of 15.5 nM.

In turn, B6 gave a Kd of less than 10 nM.

As to B7, the Kd is less than 10 nM.

Take B8: the Kd came to 15.5 nM.

For the molecule B9, the dissociation constant (Kd) is 15.5 nM.

B10 returned a Kd of 15.5 nM.

As to B11, the Kd was determined as 15.5 nM.

Consider B12, for which binding was put at a Kd of 15.5 nM.

Regarding B13, the dissociation constant (Kd) is less than 10 nM.

Molecule B14 displayed a dissociation constant (Kd) of less than 10 nM.

Molecule B15 yielded a Kd of 15.5 nM.

Take B16: the affinity, expressed as Kd, was 15.5 nM.

In turn, B17 displayed a Kd of less than 10 nM.

In turn, B18 gave a dissociation constant Kd of less than 10 nM.

In the case of B19, the dissociation constant Kd turned out to be 15.5 nM.

B20 displayed a dissociation constant (Kd) of 15.5 nM.

As for B21, binding was characterised by a dissociation constant (Kd) of 15.5 nM.

Consider B22, for which the Kd was less than 10 nM.

B23 registered a dissociation constant (Kd) of less than 10 nM.

On to B24, for which the Kd is less than 10 nM.

Molecule B25 showed a Kd of 15.5 nM.

Take B26: the Kd turned out to be 15.5 nM.

Molecule B27 displayed a Kd of 15.5 nM.

As to B28, binding was put at a Kd of 15.5 nM.

Turning to B29, the Kd is 15.5 nM.

The molecule B30 yielded a Kd of 15.5 nM.

Regarding B31, the dissociation constant (Kd) is less than 10 nM.

For B32, binding was characterised by a dissociation constant (Kd) of 15.5 nM.

B33: the Kd worked out at 15.5 nM.

The molecule B34 yielded a Kd of 15.5 nM.

With B35, the equilibrium dissociation constant (Kd) came out at 15.5 nM.

B36 gave a Kd of less than 10 nM.

B37 had a Kd of 15.5 nM.

Molecule B38 displayed a Kd of less than 10 nM.

In the case of B39, the dissociation constant Kd turned out to be 15.5 nM.

Regarding B40, binding was characterised by a dissociation constant (Kd) of 15.5 nM.

Take B41: binding was put at a Kd of 15.5 nM.

For the molecule B42, the affinity, expressed as Kd, was 15.5 nM.

Consider B43, for which the Kd was 15.5 nM.

In the case of B44, the Kd was determined as 15.5 nM.

As to B45, the Kd turned out to be 15.5 nM.

B46 came in with a Kd of 15.5 nM.

The molecule B47 gave a Kd of 15.5 nM.
